Residue numbers refer to the chain shown, from its start. Each block holds one binder with its values, some of them ahead of it.
Key:
[1] = target: T1, hEFNA4-Fc (human, UniProt P01857 100-330 = IgG part); experiment: cell surface binding inhibition (flow cytometry); 0.1 ug/ml hEphrinA4-Fc
[2] = target: T2, mEFNA4-Fc (mouse;human, UniProt O08542 26-176; P01857 100-330 = IgG part); experiment: cell surface binding inhibition (flow cytometry); 0.1 ug/ml mEphrinA4-Fc
[3] = target: T1, hEFNA4-Fc; experiment: cell surface binding inhibition (flow cytometry); 1.0 ug/ml hEphrinA4-Fc
[4] = target: T2, mEFNA4-Fc; experiment: cell surface binding inhibition (flow cytometry); 1.0 ug/ml mEphrinA4-Fc
[5] = target: T3, human ephrin-A4-His (UniProt P52798 26-170); experiment: ForteBIO
T3 chain: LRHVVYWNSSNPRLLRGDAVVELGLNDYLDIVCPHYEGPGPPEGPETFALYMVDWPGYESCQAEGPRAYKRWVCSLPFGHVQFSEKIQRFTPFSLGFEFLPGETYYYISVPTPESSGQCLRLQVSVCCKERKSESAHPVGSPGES

[6] = target: T3, human ephrin-A4-His; experiment: label-free interaction analysis
[7] = target: T4, mouse ephrin-A4 homolog (recombinantly expressed, monomeric) (mouse, UniProt O08542 26-175); experiment: label-free interaction analysis
T4 chain: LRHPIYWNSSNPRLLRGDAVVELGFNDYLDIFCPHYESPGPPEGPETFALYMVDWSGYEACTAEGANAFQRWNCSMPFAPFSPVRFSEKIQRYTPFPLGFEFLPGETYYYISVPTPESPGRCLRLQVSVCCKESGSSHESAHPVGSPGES

[8] = target: T3, human ephrin-A4-His; experiment: Biacore

B1: E47.3 Ab (antibody, V domains shown)
VH: EVQLQQSGPELVKPGASVKISCTASGYTFTYFYMNWVKQSQGKSLEWVGQINPNNGGTAYNHKFRGKTTLTVDKSSNTAFMELRSLTSEDSAVYFCARWVGTHYFDYWGQGTTLTVSS
VL: DIVLTQSPASLPVSLGQRATISCRASQSVSSSSYTYIHWYQQKPGQPPKLLINFASNLESGVPARFSVSGSGTDFTLNIHPVEGEDTATYYCQHSWEIPPTFGGGTKLEIK
- IC50 [1]: ~0.124 µg/mL
- IC50 [2]: ~0.0183 µg/mL
- IC50 [3]: 1.54 µg/mL
- IC50 [4]: ~0.0217 µg/mL

B2: SC4.2 (antibody, V domains shown)
VH: QVQLQQSGAELVRPGTSVTLSCKASGYTFTDYEMHWVKQTPVLGLEWIGAFDPETGNTVYNQKFKGKATLTADKSPNTAYMELISLTSEDSAVYYCARGYPAWFGYWGQGTLVTVSA
VL: DVVMTQIPLSLPVTLGDQASISCRSSQSLAHTNGNTYLHWYLQKPGQSPKLLIYKVSNRFSGVPDRFSGSGSGTDFTLKISRVEAEDLGVYFCSQDTHVPPTFGGGTKLEMK
- Kd [5]: 20 nM

B4: SC4.5 (antibody, V domains shown)
VH: QVQLKQSGPGLVAPSQSLSITCTVSGFSLTTYGVDWVRQSPGKGLEWLGVIWGGGSTNYNSALKSRLSISKDNSKSQVFLKMNSLQTDDTAMYYCASDWAYWGQGTLVTVSA
VL: DIVMTQSQKFMSTSVGDRVTVTCKASQNVGTNVAWFQQKSGQSPKPLIHSASYRYSGVPDRFTGSGSGTDFTLTITNVQSEDLVAYFCQQYKRYPYTFGGGTKLEIKR
- Kd [8]: 0.3 nM

B9: E15.3 Ab (antibody, V domains shown)
VH: EVQVVESGGDLVKPGGSLKLSCAASGFTFSTYGMSWVRQTPDKRLEWVATISSGGTYTYYPDSVKGRFKISRDNAKDTLYLQMSSLKSEDTAMYYCTRHDPNDGYYFLFAYWGQGTLVIVSA
VL: SIGRTQIPKFLPVSAGDRVTMTCKASQSVGNNVAWYQQKAGQSPKLLIYYASNRYTGVPDRFTGSGSGTDFTFTISSVQVEDLAVYFCQQHYSSPLTFGAGTKLELK
- IC50 [1]: 1.14 µg/mL
- IC50 [2]: 2.09 µg/mL
- IC50 [3]: 20.1 µg/mL
- IC50 [4]: 16.7 µg/mL

B10: SC4.15 (antibody, V domains shown)
VH: B9 VH
VL: B9 VL
- Kd [8]: 4.8 nM

B11: SC4.15 (Murine mAb) (antibody, V domains shown)
VH: B9 VH
VL: B9 VL
- Kd [6]: 2.7 nM

The next lines start with the values.

- Kd [6]: 4.8 nM
- Kd [7]: 3.4 nM
B3: hSC4.15 (antibody, V domains shown)
VH: EVQLVESGGGLVKPGGSLRLSCAASGFTFSTYGMSWVRQAPGKGLEWVATISSGGTYTYYPDSVKGRFKISRDNAKNSLYLQMNSLRAEDTAVYYCTRHDPNDGYYFLFAYWGQGTLVTVSS
VL: EIVLTQSPGTLSLSPGERATLSCKASQSVGNNVAWYQQKPGQAPRLLIYYASNRYTGIPDRFSGSGSGTDFTLTISRLEPEDFAVYYCQQHYSSPLTFGAGTKLEIK

- Kd [8]: 11 nM
B5: SC4.31 (antibody, V domains shown)
VH: QVQLQQPGAELVRPGASVKLSCKASGYTFTRDWMHWIKQRPGQGLDWIGTIHPYDSETHYNQNFKDKATLTVDKSSSTAYMQLSSLTSEDSAVYYCVTFIKTMVDTYYYAMDYWGQGTSVTVSS
VL: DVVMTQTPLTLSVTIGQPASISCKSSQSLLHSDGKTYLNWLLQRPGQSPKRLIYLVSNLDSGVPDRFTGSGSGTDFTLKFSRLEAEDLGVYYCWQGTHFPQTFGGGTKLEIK

- Kd [6]: 3.8 nM
- Kd [7]: > 100 nM
B6: hSC4.22 (antibody, V domains shown)
VH: QVQLVQSGAEVKKPGASVKVSCKASGYTFTGYYIHWVRQAPGQGLEWMGWIYPGNFNTKYNERFKGRVTMTTDTSTSTAYMELRSLRSDDTAVYYCAREDGSPYYAMDYWGQGTSVTVSS
VL: DIVMTQTPLSLSVTPGQPASISCRSSQSLVHSNGNTFLYWYLQKPGQSPQLLIYRVSNRFSGVPDRFSGSGSGTDFTLKISRVEAEDVGVYYCFQATHVPWTFGGGTKVEIK

- Kd [8]: 3.1 nM
B7: SC4.22 (antibody, V domains shown)
VH: QIQLQQSGPELVKPGASVKISCKASGYTFTGYYIHWVKQRPGQGLEWIGWIYPGNFNTKYNERFKGMATLTVDTSSSTAYMQLSSLTSEDSAVYLCAREDGSPYYAMDYWGQGTSVTVSS
VL: B6 VL with I2V, S12P, T14S, P15L, Q17D, P18Q, Q50K, V88L, Y92F, V109L

- Kd [6]: 3.1 nM
B8: SC4.22 (Murine mAb) (antibody, V domains shown)
VH: B7 VH
VL: B6 VL with I2V, S12P, T14S, P15L, Q17D, P18Q, Q50K, V88L, Y92F, V109L

- Kd [7]: > 100 nM
B12: hSC4.47 (antibody, V domains shown)
VH: QVQLVQSGAEVKKPGASVKVSCKASGYTFTYFYMNWVRQAPGQGLEWVGQINPNNGGTAYAQKFQGRVTMTRDTSTSTVYMELSSLRSEDTAVYYCARWVGTHYFDYWGQGTTLTVSS
VL: EIVLTQSPATLSLSPGERATLSCRASQSVSSSSYTYIHWYQQKPGQAPRLLINFASNLESGIPARFSGSGSGTDFTLTISSLEPEDFAVYYCQHSWEIPPTFGGGTKLEIK

From patent US20160264653A1 (published 2016)
